From article PMC12442371

Molecular target: IbcK (isobutylene catabolism gene K product), epoxide hydrolase from Mycolicibacterium sp. ELW1 (Mycolicibacterium sp. ELW1)
Test: SEC; Biosep-SEC S3000 column on UPLC, 10 mM Tris-HCl pH 7, 150 mM NaCl, 0.3 mL/min, 10 µL injected; two peaks, dimer to monomers

stoichiometry N: 2
Substance: IbcK (isobutylene catabolism gene K product), epoxide hydrolase from Mycolicibacterium sp. ELW1 (enzyme)
